Results published in patent US20230242654A1, “REAGENTS FOR EXPANDING CELLS EXPRESSING RECOMBINANT RECEPTORS” (Juno Therapeutics, Inc., priority 2017, published 2023).

Experiments:
[1] = Stability of antibody conjugated beads (supernatant SDS-PAGE, Coomassie blue); type: physicochemical
Description: To assess stability of the anti-ID conjugated beads, the beads were pelleted, the supernatant was removed and loaded on a 4-12% Bis-Tris SDS-PAGE gel and the gel was stained with Coomassie blue. As a control for total protein conjugated on the beads, the pelleted beads were boiled in 4× (lithium dodecyl sulfate) LDS sample buffer at about 70° C. for 20 minutes and approximately 12.5 μL or 25 μL boiled supernatant also was run on SDS-PAGE gel and assessed by Coomassie blue. Approximately 2.5 μg or 5.0 μg anti-ID antibody that had not been conjugated to the beads (positive control) or 5 μL 0.1% HSA (negative control) also were assessed by SDS-PAGE and Coomassie blue staining.
Stability of the antibody conjugated beads was assessed by pelleting the antibody-conjugated beads, running the resultant supernatant on an 4-12% Bis-Tris gel, and staining the gel for protein with Coomassie blue. As a control for total protein conjugated on the beads, a 10 μL sample of supernatant from pelleted beads that were boiled in LDS sample buffer also was assessed. […] Bands corresponding to the antibodies were detected in the sample with the supernatant from the boiled sample.
Stability of the antibody conjugated beads was assessed by pelleting the antibody-conjugated beads, running the resultant supernatant on an 4-12% Bis-Tris gel, and staining the gel for protein with Coomassie blue. […]

[2] = system: T cells transduced with anti-CD19 CAR having an scFv derived from FMC63; assay: Stimulation of T cells cultured with anti-idiotype antibody-conjugated beads up to 14 days; type: cell-based, human
Description: The FMC63-derived scFv-specific anti-ID B-1-conjugated beads were incubated with T cells. CD3-purified T cells were isolated by immunoaffinity-based enrichment from leukapheresis samples from healthy donors. Isolated cells were transduced with a viral vector encoding an anti-CD19 CAR having an scFv derived from FMC63. The viral vector construct further encoded a truncated EGFR (EGFRt), which served as a surrogate marker for CAR expression; the EGFRt-coding region was separated from the CAR sequence by a T2A skip sequence. After transductions, cells were expanded in culture and frozen by cryopreservation.
For T cells stimulation studies, thawed CD4+ or CD8+ CAR-expressing cells were separately seeded at approximately 50,000 total cells per well. In some cases, the culture media was additionally supplemented with cytokines as follows: for CD4+ cells, approximately 1200 IU/mL recombinant IL-7, 20 IU/mL recombinant IL-15 and 100 IU/mL recombinant IL-2; for CD8+ cells, approximately 200 IU/mL recombinant IL-2 and 20 IU/mL recombinant IL-15. Anti-ID B-1 conjugated beads were added to cells at a 1:1 or 1:5 cell:bead ratio and incubated up to 14 days with a 50% media exchange every 2-3 days. As a positive control, cells were cultured with anti-CD3/anti-CD28 magnetic beads at a 3:1 cell:bead ratio in the presence or absence of the indicated cytokines.
At various times of culture, CD4+ or CD8+ transduced cells (as detected by anti-EGFR for expression of the surrogate marker) were assessed for expansion, PD-1 expression and viability.

[3] = system: T cells transduced with anti-CD19 CAR having an scFv derived from FMC63; assay: CAR-specific cell expansion with anti-ID B-1 conjugated beads, 9 days, two patient donors; type: cell-based, human
Description: Similar studies as those described in Examples 11 and 12 were performed, except using CAR-expressing T cells generated from two different patient donors. CD3-purified T cells were isolated from peripheral blood mononuclear cells (PBMCs) of two donor patients, transduced with a viral vector encoding an anti-CD19 CAR having an scFv derived from FMC63, expanded in culture, frozen, and thawed.
Thawed CD4+, CD8+ or co-cultures of CD4/CD8 (1:1 ratio) were seeded in wells of a 6-well plate at approximately 5×10^6 total cells/well in culture media that was additionally supplemented with cytokines as follows: for CD4+ cells or CD4+/CD8+ co-cultures media was supplemented with approximately 1200 IU/mL recombinant IL-7, 20 IU/mL recombinant IL-15 and 100 IU/mL recombinant IL-2; for CD8+ cells media was supplemented with 200 IU/mL recombinant IL-2 and 20 IU/mL recombinant IL-15. Anti-ID B-1 conjugated beads were added to cells at a 1:1 cell:bead ratio and incubated up to 9 days with a 50% media exchange every 2-3 days.
At various times of culture, the number of CD4+ or CD8+ transduced cells (as detected by anti-EGFR for expression of the EGFRt surrogate marker) present in the culture for each condition was assessed and fold expansion or frequency of the CAR-expressing cells as a percent of total cells was determined. Expression of PD-1 and CD25 and cell viability also was determined.

[4] = system: anti-CD19 CAR-T cell compositions; assay: Long-term (15 day) stimulation with anti-ID conjugated beads of CAR-T compositions made with compounds; type: cell-based, human; conditions: 1:1 bead:cell, 15 days, counted every 5 days
Description: Engineered T cell compositions containing T cells that express an anti-CD19 CAR were generated from three separate donors in the presence of different compounds or a vehicle control.
The ability of the cells from the different T cell compositions to expand following stimulation of the CAR was assessed by incubating cells of the generated anti-CD19 CAR-T cell compositions with beads surface conjugated with an anti-idiotype antibody specific to the anti-CD19 CAR. The anti-ID conjugated beads were incubated with cells at a 1:1 bead:cell ratio in wells of 24-well G-rex expansion vessels (Argos Technologies) for 15 days. The total live T cells per well was determined by counting cells in the cultures every 5 days (FIG. 25A). The mean area under the curve (AUC) of the function of T cell number over time was calculated relative to the AUC of cells expanded with media only (FIG. 25B).
Secondary cytokine response after stimulation with antigen-expressing cells was assessed on CAR-T cells from the T cell compositions harvested at day 11 following expansion with anti-ID conjugated beads. The anti-ID stimulated cells were incubated with irradiated K562-CD19 target cells at an effector:target ratio of 1:1 for approximately 16 hours. Supernatant was collected and TNF-alpha, IFN-gamma, and IL-2 cytokine production were measured using a Luminex Multiplex Assay. […]

B1: anti-ID conjugated beads: FMC63-derived scFv-specific anti-idiotype antibody (B-1 in Examples 10-14) covalently coupled to tosyl-activated magnetic beads (conjugate)
heavy: EVQLQQSGPELVKPGASVKMSCKASGYTFTDYYMKWVKQCHGKSLEWIGDINPNNGGTDYNQNFKGKATLTVDKSSSTAYMQLNSLTSEDSAVYYCAREGNNYGSRDAMDYWGQGTSVTVSSAKTTAPSVYPLAPVCGDTTGSSVTLGCLVKGYFPEPVTLTWNSGSLSSGVHTFPAVLQSDLYTLSSSVTVTSSTWPSQSITCNVAHPASSTKVDKKIEPRGPTIKPCPPCKCPAPNLLGGPSVFIFPPKIKDVLMISLSPIVTCVVVDVSEDDPDVQISWFVNNVEVHTAQTQTHREDYNSTLRVVSALPIQHQDWMSGKEFKCKVNNKDLPAPIERTISKPKGSVRAPQVYVLPPPEEEMTKKQVTLTCMVTDFMPEDIYVEWTNNGKTELNYKNTEPVLDSDGSYFMYSKLRVEKKNWVERNSYSCSVVHEGLHNHHTTKSFSRTPGK
light: QIVLTQSPALMSASPGEKVTMTCSASSGVIYMYWYQQKPRSSPKPWIYLTSNLASGVPARFSGSGSGTSYSLTISSMEAEDAATYYCQQWSSNPLTFGAGTKLELKRADAAPTVSIFPPSSEQLTSGGASVVCFLNNFYPKDINVKWKIDGSERQNGVLNSWTDQDSKDSTYSMSSTLTLTKDEYERHNSYTCEATHKTSTSPIVKSFNRNEC
- stability of the conjugation [1]: the conjugation was stable
- extent of expansion of CD4+ and CD8+ T cells ([2]; 1:1 or 1:5 cell:bead, versus control anti-CD3/anti-CD28 magnetic beads): The extent of expansion was greater
- percent viability of CD4+ and CD8+ T cells ([2]; cultured in the presence of cytokines): remained consistently high
- surface expression of PD-1 on the CD4+ cell subset ([2]; days 3, 7, 10 and 14): substantially lower or undetectable
- expansion of CAR-expressing (EGFRt+) CD4+ T cells ([3]; CD4+ cells cultured alone, 1:1 cell:bead, up to 9 days): over 60 fold
- expansion of CAR-expressing (EGFRt+) CD8+ T cells ([3]; CD8+ T cells co-cultured with CD4+ cells): substantially higher expansion
- CD25 expression ([3]; after 9 days): also was decreased
- frequency of transduced cells (EGFRt+) in the culture ([3]; day 9): > 90%
- PD-1 expression on CD4+ and CD8+ T cells ([3]; days 5, 7 and 9): decreased substantially over time
- Viability of CD4+ and CD8+ cells ([3]; during the 9 day culture): ~100%
- total live T cells per well [4]: initial expansion that was followed by a decline in cell number
